The results in this text go back to patent publication US20260139278A1, “SPECIFICITY OF CRISPR-TRANSPOSON SYSTEMS IN DNA MODIFICATION” (The Trustees of Columbia University in the City of New York, published 2026).

Data set [1] has as its target T1, TnsC (ShCAST) (Scytonema hofmannii UTEX B 2349).
T1 chain: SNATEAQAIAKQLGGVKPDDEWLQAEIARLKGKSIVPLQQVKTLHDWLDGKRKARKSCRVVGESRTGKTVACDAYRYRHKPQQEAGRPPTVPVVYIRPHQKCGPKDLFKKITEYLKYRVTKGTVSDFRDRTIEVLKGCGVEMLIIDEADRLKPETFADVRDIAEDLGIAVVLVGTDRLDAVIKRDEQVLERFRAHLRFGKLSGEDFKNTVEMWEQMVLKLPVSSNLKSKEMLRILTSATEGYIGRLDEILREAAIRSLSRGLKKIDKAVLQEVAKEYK
The data set is described as follows: FP; ATP-dependent at 200 mM NaCl; nucleotide-independent at 50 mM NaCl; 2 mM MgCl2, 37C. The conditions noted are these: tags: His6-SUMO-TEV cleaved (SNA N-terminal scar). On the procedure: (§1) Fluorescence polarization. Fluorescence polarization was performed as reported earlier (Hoffmann, F. T. et al. Nature 609, 384-393 (2022). A 55 bp dsDNA labeled with a 5′ Fluorescein (6-FAM) tag on one of its strands was used for all fluorescence polarization experiments (Table 3). Recombinantly expressed TnsC (0-15 μM) was titrated with the FAM-labeled dsDNA in 1× binding buffer (20 mM HEPES pH 7.5, 2 mM MgCl₂, 200 mM NaCl, 10 μM ZnCl₂, 1 mM DTT) in the presence of 2 mM ATP or its analogs. The samples were incubated at 37° C. for 30 min in a 384-well plate. The fluorescence gain was adjusted to a sample lacking TnsC while keeping a requested polarization value of 60 mP. The error bar represents the standard deviation measured across two technical replicates. For low salt measurements, the concentration of NaCl was maintained at 50 mM.

In data set [2] the target is T2, TniQ + TnsC (ShCAST) (Scytonema hofmannii UTEX B 2349).
T2 chain 1: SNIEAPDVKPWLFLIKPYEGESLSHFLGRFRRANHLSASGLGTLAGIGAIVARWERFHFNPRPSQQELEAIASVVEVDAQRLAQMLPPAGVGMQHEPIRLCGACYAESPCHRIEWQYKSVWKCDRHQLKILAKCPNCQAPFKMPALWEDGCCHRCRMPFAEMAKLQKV
T2 chain 2: T1 chain
The data set is described as follows: FP; TniQ titrated onto DNA preincubated with TnsC, 50 mM NaCl, 37C. The conditions noted are these: tags: His6-SUMO-TEV cleaved. On the procedure: as §1
(§2) For fluorescence polarization measurements for TniQ alone or its interaction with DNA bound to TnsC, TniQ (0-1 μM) was titrated and incubated for 30 min at 37° C. with fluorescently labeled DNA alone or DNA preincubated with […] (30 min at 37° C.). Experiments were conducted in a 1× binding buffer containing 50 mM NaCl in a 25 μL final volume.

In data set [3] the target is T3, TnsC (Scytonema hofmannii UTEX B 2349, Type V-K CAST, recombinantly purified, after TEV cleavage) (Scytonema hofmannii (UTEX B 2349)).
T3 construct: also called AAA+ ATPase; AAA+ regulator
T3 chain: T1 chain
In words: fluorescence polarization, TniQ (0-1 µM) titrated onto 55-bp FAM-labeled dsDNA preincubated with TnsC. On the procedure: as §1, §2

For data set [4], the target named is T4, TnsC (Scytonema hofmannii UTEX B 2349, Type V-K CAST, recombinantly purified, after TEV cleavage).
T4 chain: T1 chain

B1: 55-bp FAM dsDNA (dsDNA)
DNA 1: GAGGAGGGCTGTTTTTACAAAATCCGGTAGTAACTTGCTAACCAATTCCTAGGCA
DNA 2: TGCCTAGGAATTGGTTAGCAAGTTACTACCGGATTTTGTAAAAACAGCCCTCCTC
In the case of B1, the binding result in data set [1] and in data set [2] was “binds” each time.

B2: TniQ (Scytonema hofmannii UTEX B 2349, Type V-K CAST, recombinantly purified, after TEV cleavage) (other)
chain: T2 chain 1
notes: also called ShCAST TniQ; adaptor protein
Turning to B2, the binding result in data set [3] is given as “binds”.

B3: TnsB (Scytonema hofmannii UTEX B 2349, Type V-K CAST, recombinantly purified, after TEV cleavage) (protein)
chain: SNNSQQNPDLAVHPLAIPMEGLLGESATTLEKNVIATQLSEEAQVKLEVIQSLLEPCDRTTYGQKLREAAEKLNVSLRTVQRLVKNWEQDGLVGLTQTSRADKGKHRIGEFWENFITKTYKEGNKGSKRMTPKQVALRVEAKARELKDSKPPNYKTVLRVLAPILEKQQKAKSIRSPGWRGTTLSVKTREGKDLSVDYSNHVWQCDHTRVDVLLVDQHGEILSRPWLTTVIDTYSRCIMGINLGFDAPSSGVVALALRHAILPKRYGSEYKLHCEWGTYGKPEHFYTDGGKDFRSNHLSQIGAQLGFVCHLRDRPSEGGVVERPFKTLNDQLFSTLPGYTGSNVQERPEDAEKDARLTLRELEQLLVRYIVDRYNQSIDARMGDQTRFERWEAGLPTVPVPIPERDLDICLMKQSRRTVQRGGCLQFQNLMYRGEYLAGYAGETVNLRFDPRDITTILVYRQENNQEVFLTRAHAQGLETEQLALDEAEAASRRLRTAGKTISNQSLLQEVVDRDALVATKKSRKERQKLEQTVLRSAAVDESNRESLPSQIVEPDEVESTETVHSQYEDIEVWDYEQLREEYGF
As for B3, in data set [4], the “ATP hydrolysis activity of TnsC (Malachite Green assay)” value is on record as “TnsB stimulates the ATP hydrolysis activity of TnsC in a DNA-dependent reaction”; the “phosphate liberated (Malachite Green Phosphate Assay; TnsC 10 µM, TnsB 20 µM, dsDNA 10 µM, 1 mM ATP, 120 min at 37° C.)” value is “the sample containing TnsC, TnsB and dsDNA which liberated 174 µM of phosphate”.
